# Reference: patent US20070020627
# Legend:
# [1] = test system: E2x (6-finger) (artificial); conditions: stated as Km; assay not described
# [2] = test system: SKD-E2cJ15E2x (12-finger) (artificial); assay: cell_activity; conditions: HeLa luciferase
# [3] = test system: E2cJ15E2x-VP64 (12-finger) (artificial); assay: cell_activity; conditions: HeLa luciferase
# [4] = test system: VP64-E2c (6-finger) (artificial); assay: cell_activity; conditions: HeLa luciferase
# [5] = test system: SKD-E2c (6-finger) (artificial); assay: cell_activity; conditions: HeLa luciferase
# [6] = test system: E2c (6-finger) (artificial); conditions: stated as Km; assay not described
substance,measurement,setting,value
ACCGGAGAAACCAGGGGA (double strand) [E2X target],Kd,[1],15 nM
E2p luciferase reporter (erbB2 promoter),activity (fold repression),[2],8
same,activity (fold activation),[3],45
same,activity (fold activation),[4],78
same,activity (fold repression),[5],36
GGGGCCGGAGCCGCAGTG (double strand) [E2c target],Kd,[6],0.5 nM
